# Results reported in publication PMC8154056.
# Target: Gloeobacter violaceus deeply-rooted thioredoxin reductase (GvDTR), renamed ferredoxin flavin-thioredoxin reductase (GvFFTR) (Gloeobacter violaceus) (UniProt Q7NMP6)
# Assay: ITC
substance,measurement,value
Gloeobacter violaceus plant-type [2Fe-2S] ferredoxin 1 (GvFdx1) (natural protein),stoichiometry N,1
